One test deals with T1, human NaPi2b (human, UniProt O95436 1-690).
T1 construct: whole, on cells; read as O95436; Detected by immunohistochemistry in tissue sections; also called SLC34A2; NaPiIIb
T1 sequence (looked up): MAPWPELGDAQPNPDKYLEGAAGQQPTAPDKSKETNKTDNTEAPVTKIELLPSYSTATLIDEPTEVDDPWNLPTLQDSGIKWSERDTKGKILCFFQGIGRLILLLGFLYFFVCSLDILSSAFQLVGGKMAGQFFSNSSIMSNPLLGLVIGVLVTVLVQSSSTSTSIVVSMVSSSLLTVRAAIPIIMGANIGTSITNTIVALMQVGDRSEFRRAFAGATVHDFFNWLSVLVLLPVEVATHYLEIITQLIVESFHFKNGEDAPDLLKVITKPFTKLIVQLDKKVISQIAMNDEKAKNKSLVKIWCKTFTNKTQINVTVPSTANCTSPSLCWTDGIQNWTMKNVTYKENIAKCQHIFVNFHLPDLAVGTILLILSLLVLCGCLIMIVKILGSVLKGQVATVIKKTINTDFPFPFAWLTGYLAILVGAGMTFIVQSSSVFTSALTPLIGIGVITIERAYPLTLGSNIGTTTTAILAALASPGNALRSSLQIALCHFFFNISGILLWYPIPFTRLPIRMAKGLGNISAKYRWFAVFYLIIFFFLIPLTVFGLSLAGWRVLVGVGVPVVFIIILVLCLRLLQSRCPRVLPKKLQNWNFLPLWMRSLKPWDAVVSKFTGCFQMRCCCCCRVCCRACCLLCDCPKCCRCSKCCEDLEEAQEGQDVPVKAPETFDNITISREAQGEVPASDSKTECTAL
The test is described as follows: immunohistochemistry, human lung tumor tissue microarray. On the procedure:
An immunohistochemical assay for MERS67 was established on a Leica BondRx Instrument. The assay was performed on tissue microarrays (TMA), including NSCLC and small cell lung cancer (SCLC) cell line arrays, and a NSCLC human tumor array. Tumors in the NSCLC array had previously been classified based on morphologic features only. All arrays were scored based on the H-score method.
To characterize the primary tumors further, the tumor TMA was stained with TTF-1 and p40, markers of ACA and squamous cell carcinoma (SCC), respectively. Results of this staining were compared to MERS67 staining patterns. H-Scores in the NSCLC cell line TMA ranged from 0-260, and from 0-100 in the small cell lung carcinoma (SCLC) TMA. Within the tissue microarray, 99 individual cases were evaluable. By morphologic classification 63 cases were SCC, and 23 cases were ACA. Using an arbitrary cut point of H=50, there was a statistically significant difference in the number of NaPi2b positive ACA cases (19/23) vs SCC (3/63). FIG. 13 is a box plot of the H scores derived from MERS67 IHC comparing SCC vs ACA, when these tumors were classified by morphology only.

Test [1] addresses T2, Human cyclized NaPi2b peptide (human).
T2 construct: also called Human NaPi2b peptide
Nature of the test: ELISA on plate-coated human cyclized NaPi2b peptide, one site-specific binding fit. On the procedure: Human cyclized NaPi2b peptide were generated and lyophilized covering the amino acids identified in the XMT-1535 epitope (New England Peptide, Gardner, Mass.). For the ELISA, the lyophilized NaPi2b peptide was reconstituted in DMSO. Human NaPi2b peptide was used to coat 96-Well high binding clear ELISA plates (Corning, 3369) at 1 μg/mL in sodium carbonate buffer, pH 9 to a total volume of 100 μl per well. After a 2-hour incubation, plates were washed 4 times with 100 μl per well TBS-Tween 20, blocked with 3% BSA in TBS-Tween 20 (100 μl per well) for 1 hour, and washed again. Test articles, MERS67 (Lot U0859BH and Lot U5569BL), XMT-1535, and the non-binding control (trastuzumab) were added to the wells at a dose concentration range from 100 nM to 0.002 nM using an […] 3-fold serial dilution in TBS-Tween 20 buffer at 100 μl per well. Plates were incubated for 1 hour with rocking then washed as above. […] The Optical Density (O.D.) was measured at 450 nm with a SpectraMax M5 microplate reader (Molecular Devices, Sunnyvale, Calif.). The O.D. for each treatment was graphed, and Kd calculated for each antibody with GraphPad Prism software (GraphPad Software Inc., La Jolla, Calif.) by non-linear regression using the one site-specific binding model.
For orientation: In an ELISA, binding on a coated surface is turned into a signal by an enzyme label.

“And” between values parts separate entries of the source, which are not always exact repeats. Equal values may be shown once.

By Kd is commonly meant the equilibrium constant for the complex coming apart. Higher therefore signals weaker binding.

B1: MERS67 (antibody, rabbit IgG1, V domains shown)
VH: QVQLVQSGAEVVKPGASVKMSCKASGYTFTGYNIHWVKQAPGQGLEWIGAIYPGNGDTSYKQKFRGRATLTADTSTSTVYMELSSLRSEDSAVYYCARGETARATFAYWGQGTLVTVSS
VL: DIQMTQSPSSLSASVGDRVTITCSASQDIGNFLNWYQQKPGKTVKVLIYYTSSLYSGVPSRFSGSGSGTDYTLTISSLQPEDFATYYCQQYSKLPLTFGQGTKLELKR
notes: XMT-1535 variable regions joined to the rabbit IgG1 constant region and the rabbit Ig kappa-b4 C region; Two lots tested: U0859BH (one-step purification) and U5696BL (two-step purification); also called MER67; chimeric NaPi2b antibody
In the case of B1, the binding result with human NaPi2b is recorded as “binds”. Further, the Kd in test [1] was 0.256 nM and 0.104 nM.

Values taken from US20190160181A1 (MERSANA THERAPEUTICS, published 2019).
